For data set [1], the target named is I-Vdi141I … homing endonuclease, wild type (Vulcanisaeta distributa strain IC-141). In words: SEC. On the technique in general: In gel filtration, larger molecules generally elute earlier.
Data set [2] concerns the target T1, I-Vdi141I I65M/I107M (selenomethionyl) (V. distributa strain IC-141, UniProt Q6L703 1-169, I65M;I107M).
T1 sequence: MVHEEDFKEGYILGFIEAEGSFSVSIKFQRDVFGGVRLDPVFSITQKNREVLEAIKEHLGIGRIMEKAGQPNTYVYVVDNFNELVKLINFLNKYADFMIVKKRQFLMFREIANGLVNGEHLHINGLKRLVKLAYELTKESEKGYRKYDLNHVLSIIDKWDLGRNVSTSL
The data set is described as follows: X-ray crystallography.

The stoichiometry N is the number of molecules, sites or subunits per partner or assembly.

Turning to “I-Vdi141I … homing endonuclease, wild type (enzyme)”, the stoichiometry N in data set [1] was 2.

B1: 22 bp I-Vdi141I target site duplex (dsDNA)
DNA 1: CTGACTCTCTTAAGGTAGCCAA
DNA 2: TTGGCTACCTTAAGAGAGTCAG
As to B1, the binding result in data set [2] is on record as “binds”.

Source of the values: PMC2602781.
